Measured values from PMC6917504 (Biochemistry, 2017).

How the values were obtained:
SEC = biological target: the molecule itself; test: SEC
cross-linking = biological target: the molecule itself; test: cross-linking

| Protein | stoichiometry N (SEC) | stoichiometry N (cross-linking) |
| --- | --- | --- |
| Human concentrative nucleoside transporter 3 (hCNT3, SLC28A3), wild type, purified from High Five insect cells (natural protein, UniProt Q9HAS3 1-616, looked up) MELRSTAAPRAEGYSNVGFQNEENFLENENTSGNNSIRSRAVQSREHTNTKQDEEQVTVEQDSPRNREHMEDDDEEMQQKGCLERRYDTVCGFCRKHKTTLRHIIWGILLAGYLVMVISACVLNFHRALPLFVITVAAIFFVVWDHLMAKYEHRIDEMLSPGRRLLNSHWFWLKWVIWSSLVLAVIFWLAFDTAKLGQQQLVSFGGLIMYIVLLFLFSKYPTRVYWRPVLWGIGLQFLLGLLILRTDPGFIAFDWLGRQVQTFLEYTDAGASFVFGEKYKDHFFAFKVLPIVVFFSTVMSMLYYLGLMQWIIRKVGWIMLVTTGSSPIESVVASGNIFVGQTESPLLVRPYLPYITKSELHAIMTAGFSTIAGSVLGAYISFGVPSSHLLTASVMSAPASLAAAKLFWPETEKPKITLKNAMKMESGDSGNLLEAATQGASSSISLVANIAVNLIAFLALLSFMNSALSWFGNMFDYPQLSFELICSYIFMPFSFMMGVEWQDSFMVARLIGYKTFFNEFVAYEHLSKWIHLRKEGGPKFVNGVQQYISIRSEIIATYALCGFANIGSLGIVIGGLTSMAPSRKRDIASGAVRALIAGTVACFMTACIAGILSSTP | 3 | – |
| hCNT3 Y266C/F463C double cysteine mutant (natural protein, human, UniProt Q9HAS3 1-691, looked up) MELRSTAAPRAEGYSNVGFQNEENFLENENTSGNNSIRSRAVQSREHTNTKQDEEQVTVEQDSPRNREHMEDDDEEMQQKGCLERRYDTVCGFCRKHKTTLRHIIWGILLAGYLVMVISACVLNFHRALPLFVITVAAIFFVVWDHLMAKYEHRIDEMLSPGRRLLNSHWFWLKWVIWSSLVLAVIFWLAFDTAKLGQQQLVSFGGLIMYIVLLFLFSKYPTRVYWRPVLWGIGLQFLLGLLILRTDPGFIAFDWLGRQVQTFLECTDAGASFVFGEKYKDHFFAFKVLPIVVFFSTVMSMLYYLGLMQWIIRKVGWIMLVTTGSSPIESVVASGNIFVGQTESPLLVRPYLPYITKSELHAIMTAGFSTIAGSVLGAYISFGVPSSHLLTASVMSAPASLAAAKLFWPETEKPKITLKNAMKMESGDSGNLLEAATQGASSSISLVANIAVNLIAFLALLSCMNSALSWFGNMFDYPQLSFELICSYIFMPFSFMMGVEWQDSFMVARLIGYKTFFNEFVAYEHLSKWIHLRKEGGPKFVNGVQQYISIRSEIIATYALCGFANIGSLGIVIGGLTSMAPSRKRDIASGAVRALIAGTVACFMTACIAGILSSTPVDINCHHVLENAFNSTFPGNTTKVIACCQSLLSSTVAKGPGEVIPGGNHSLYSLKGCCTLLNPSTFNCNGISNTF | – | 3 |
